# Assay results published in patent publication US11882829B2, “Fusion proteins and methods for stimulating plant growth, protecting plants, and immobilizing bacillus spores on plants” (Spogen Biotech Inc., priority 2013, dated 2024).
# B1: Sigma K (SEQ ID NO: 99) (nucleic acid, listed as Bacillus anthracis)
# DNA: TATATCATATGTAAAATTAGTTCTTATTCCCACATATCATATAGAATCGCCATATTATACATGCAGAAAACTAAGTATGGTATTATTCTTAAATTGTTTAGCACCTTCTAATATTACAGATAGAATCCGTCATTTTCAACAGTGAACATGGATTTCTTCTGAACACAACTCTTTTTCTTTCCTTATTTCCAAAAAGAAAAGCAGCCCATTTTAAAATACGGCTGCTTGTAATGTACATTA
# B2: BclC (SEQ ID NO: 98) (nucleic acid, listed as Bacillus anthracis)
# DNA: TGAAGTATCTAGAGCTAATTTACGCAAAGGAATCTCAGGACAACACTTTCGCAACACCTATATTTTAAATTTAATAAAAAAAGAGACTCCGGAGTCAGAAATTATAAAGCTAGCTGGGTTCAAATCAAAAATTTCACTAAAACGATATTATCAATACGCAGAAAATGGAAAAAACGCCTTATCATAAGGCGTTTTTTCCATTTTTTCTTCAAACAAACGATTTTACTATGACCATTTAACTAATTTTTGCATCTACTATGATGAGTTTCATTCACATTCTCATTAGAAAGGAGAGATTTAATG
# B3: BclA (SEQ ID NO: 85) (nucleic acid, listed as Bacillus anthracis)
# DNA: TAATCACCCTCTTCCAAATCAATCATATGTTATACATATACTAAACTTTCCATTTTTTTAAATTGTTCAAGTAGTTTAAGATTTCTTTTCAATAATTCAAATGTCCGTGTCATTTTCTTTCGGTTTTGCATCTACTATATAATGAACGCTTTATGGAGGTGAATTTATG
# B4: YjcA (SEQ ID NO: 93): YjcA promoter (B. thuringiensis serovar kurstaki str. HD73) (nucleic acid, listed as Bacillus thuringiensis)
# DNA: TTAATGTCACTCCTTATCTTCTTGTTTGTATTTACATTAATAAGATATTGGAGTTGAGGAGATTTGGTCACAATCTCAAGACCTTTTTTTTAAATAGGCGAAAGAGGATAAGGGAAGGTGGAATTA
# modifications: expressed or natural sequence
# B5: CotY (SEQ ID NO: 97) (nucleic acid, listed as Bacillus anthracis)
# DNA: CGCGCACCACTTCGTCGTACAACAACGCAAGAAGAAGTTGGGGATACAGCAGTATTCTTATTCAGTGATTTAGCACGCGGCGTAACAGGAGAAAACATTCACGTTGATTCAGGGTATCATATCTTAGGATAAATATAATATTAATTTTAAAGGACAATCTCTACATGTTGAGATTGTCCTTTTTATTTGTTCTTAGAAAGAACGATTTTTAACGAAAGTTCTTACCACGTTATGAATATAAGTATAATAGTACACGATTTATTCAGCTACGTA
# B6: YjcB (SEQ ID NO: 94): YjcB promoter (B. thuringiensis serovar kurstaki str. HD73) (nucleic acid, listed as Bacillus thuringiensis)
# DNA: ATATATTTTCATAATACGAGAAAAAGCGGAGTTTAAAAGAATGAGGGAACGGAAATAAAGAGTTGTTCATATAGTAAATAGACAGAATTGACAGTAGAGGAGA
# modifications: expressed or natural sequence
# B7: InhA (SEQ ID NO: 100): InhA promoter (B. thuringiensis Al Hakam) (nucleic acid, listed as Bacillus thuringiensis)
# DNA: TATCACATAACTCTTTATTTTTAATATTTCGACATAAAGTGAAACTTTAATCAGTGGGGGCTTTGTTCATCCCCCCACTGATTATTAATTGAACCAAGGGATAAAAAGATAGAGGGTCTGACCAGAAAACTGGAGGGCATGATTCTATAACAAAAAGCTTAATGTTTATAGAATTATGTCTTTTTATATAGGGAGGGTAGTAAACAGAGATTTGGACAAAAATGCACCGATTTATCTGAATTTTAAGTTTTATAAAGGGGAGAAATG
# B8: ExsY (SEQ ID NO: 91): ExsY promoter (B. thuringiensis serovar konkukian str. 97-27) (nucleic acid, listed as Bacillus thuringiensis)
# DNA: TAATTCCACCTTCCCTTATCCTCTTTCGCCTATTTAAAAAAAGGTCTTGAGATTGTGACCAAATCTCCTCAACTCCAATATCTTATTAATGTAAATACAAACAAGAAGATAAGGAGTGACATTAA
# modifications: expressed or natural sequence
# B9: BclA adjacent DS Glycosyl transferase promoter 2 (SEQ ID NO: 102): BclA cluster glycosyl transferase operon 2 promoter (nucleic acid, listed as Bacillus thuringiensis)
# DNA: ACATAAATTCACCTCCATAAAGCGTTCATTATATAGTAGATGCAAAACCGAAAGAAAATGACACGGACATTTGAATTATTGAAAAGAAATCTTAAACTACTTGAACAATTTAAAAAAATGGAAAGTTTAGTATATGTATAACATATGATTGATTTGGAAGAGGGTGATTA
# B10: BxpB/ExsFA (SEQ ID NO: 95): BxpB promoter (B. thuringiensis Al Hakam) (nucleic acid, listed as Bacillus thuringiensis)
# DNA: AAACTAAATAATGAGCTAAGCATGGATTGGGTGGCAGAATTATCTGCCACCCAATCCATGCTTAACGAGTATTATTATGTAAATTTCTTAAAATTGGGAACTTGTCTAGAACATAGAACCTGTCCTTTTCATTAACTGAAAGTAGAAACAGATAAAGGAGTGAAAAACA
# B11: Rhamnose Promoters (SEQ ID NO: 96): Rhamnose promoter (B. thuringiensis Al Hakam) (nucleic acid, listed as Bacillus thuringiensis)
# DNA: ATTCACTACAACGGGGATGAGTTTGATGCGGATACATATGAGAAGTACCGGAAAGTGTTTGTAGAACATTACAAAGATATATTATCTCCATCATAAAGGAGAGATGCAAAG
# modifications: expressed or natural sequence
# B12: BclA adjacent US Glycosyl transferase promoter 1 (SEQ ID NO: 101): BclA cluster glycosyl transferase operon 1 promoter (nucleic acid, listed as Bacillus thuringiensis)
# DNA: ATTTTTTACTTAGCAGTAAAACTGATATCAGTTTTACTGCTTTTTCATTTTTAAATTCAATCATTAAATCTTCCTTTTCTACATAGTCATAATGTTGTATGACATTCCGTAGGAGGCACTTATA
# modifications: expressed or natural sequence
# notes: BclA cluster glycosyl transferase operon 1 promoter
# Experiments:
# Corn = Corn growth after BEMD PhoA4 spores with or without polyphosphate (Example 11); assay type: in vivo; conditions: Additive: Polyphosphate 0.5 mg/pot; corn height at two weeks
# [1] = system: corn plants at the V5 stage; experiment: Foliar application to corn under heat and water stress (Example 38); assay type: in vivo; conditions: for Change in plant Height over 2 week stress: foliar spray 1 ml/plant, 32.2° C., watering once per week, compared to water-only control
# [2] = system: sigma K driven genes in Bacillus cereus family members; conditions: microarray data from Bergman et al., 2008; late sporulation, 300 minutes; cited from earlier work
molecule,measurement,setting,value
Polyphosphate,"Growth, Comparison to Water",Corn,110.8%
"c1ccc2snnc2c1 [Benzothiadiazole (BTH), Benzothiadiazole]",effect on growth of stressed corn,[1],positive responses
same,Change in plant Height over 2 week stress,[1],7.3%
O=C(O)c1ccccc1O [Salicylic Acid],effect on growth of stressed corn,[1],positive responses
same,Change in plant Height over 2 week stress,[1],5.8%
B1,Relative Expression (Fold increase in mRNA),[2],64 Fold
B2,Relative Expression (Fold increase in mRNA),[2],14.44 Fold
B3,Relative Expression (Fold increase in mRNA),[2],77.44 Fold
B4,Relative Expression (Fold increase in mRNA),[2],64 Fold
B5,Relative Expression (Fold increase in mRNA),[2],79.21 Fold
B6,Relative Expression (Fold increase in mRNA),[2],70.56 Fold
B7,Relative Expression (Fold increase in mRNA),[2],34.25 Fold
B8,Relative Expression (Fold increase in mRNA),[2],32.49 Fold
B9,Relative Expression (Fold increase in mRNA),[2],73.96 Fold
B10,Relative Expression (Fold increase in mRNA),[2],30.25 Fold
B11,Relative Expression (Fold increase in mRNA),[2],75.69 Fold
B12,Relative Expression (Fold increase in mRNA),[2],72.25 Fold
